What was measured:
Assay in all cases: Kinase Profiling Assay
Format in all cases: biochemical
Conditions in all cases: 100 μM
ARK5(h) = target: T1, ARK5(h) (Homo sapiens, UniProt O60285)
T1 sequence (O60285 1-661): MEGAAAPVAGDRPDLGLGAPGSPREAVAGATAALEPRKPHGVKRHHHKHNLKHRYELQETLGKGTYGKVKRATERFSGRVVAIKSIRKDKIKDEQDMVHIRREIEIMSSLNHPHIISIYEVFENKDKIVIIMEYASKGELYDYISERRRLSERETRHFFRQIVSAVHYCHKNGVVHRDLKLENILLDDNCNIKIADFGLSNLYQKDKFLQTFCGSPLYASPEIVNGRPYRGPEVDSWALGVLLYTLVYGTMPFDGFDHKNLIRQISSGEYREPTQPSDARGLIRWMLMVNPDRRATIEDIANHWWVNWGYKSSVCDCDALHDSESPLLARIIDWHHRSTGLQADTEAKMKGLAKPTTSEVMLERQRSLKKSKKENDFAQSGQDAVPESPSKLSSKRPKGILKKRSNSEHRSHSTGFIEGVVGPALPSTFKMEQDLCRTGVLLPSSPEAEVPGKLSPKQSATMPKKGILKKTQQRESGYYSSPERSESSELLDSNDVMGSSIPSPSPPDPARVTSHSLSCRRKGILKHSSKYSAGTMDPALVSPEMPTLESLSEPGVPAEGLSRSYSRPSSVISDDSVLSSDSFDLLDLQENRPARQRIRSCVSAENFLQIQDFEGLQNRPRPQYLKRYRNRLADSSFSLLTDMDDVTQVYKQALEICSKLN

DAPK2(h) = DAPK2(h) (Homo sapiens, UniProt Q9UIK4)
DAPK2(h), sequence (Q9UIK4 whole entry): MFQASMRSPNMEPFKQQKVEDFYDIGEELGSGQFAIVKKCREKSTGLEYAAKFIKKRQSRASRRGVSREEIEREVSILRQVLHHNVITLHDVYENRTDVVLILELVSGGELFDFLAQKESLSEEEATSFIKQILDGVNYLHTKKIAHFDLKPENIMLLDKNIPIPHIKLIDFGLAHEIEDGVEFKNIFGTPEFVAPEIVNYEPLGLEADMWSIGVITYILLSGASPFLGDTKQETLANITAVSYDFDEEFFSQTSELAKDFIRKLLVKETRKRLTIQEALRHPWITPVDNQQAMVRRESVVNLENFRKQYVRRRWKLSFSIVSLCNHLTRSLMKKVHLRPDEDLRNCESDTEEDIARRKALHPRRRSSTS

ErbB4(h) = ErbB4(h) (Homo sapiens, UniProt Q15303)
ErbB4(h), sequence (Q15303 26-1308): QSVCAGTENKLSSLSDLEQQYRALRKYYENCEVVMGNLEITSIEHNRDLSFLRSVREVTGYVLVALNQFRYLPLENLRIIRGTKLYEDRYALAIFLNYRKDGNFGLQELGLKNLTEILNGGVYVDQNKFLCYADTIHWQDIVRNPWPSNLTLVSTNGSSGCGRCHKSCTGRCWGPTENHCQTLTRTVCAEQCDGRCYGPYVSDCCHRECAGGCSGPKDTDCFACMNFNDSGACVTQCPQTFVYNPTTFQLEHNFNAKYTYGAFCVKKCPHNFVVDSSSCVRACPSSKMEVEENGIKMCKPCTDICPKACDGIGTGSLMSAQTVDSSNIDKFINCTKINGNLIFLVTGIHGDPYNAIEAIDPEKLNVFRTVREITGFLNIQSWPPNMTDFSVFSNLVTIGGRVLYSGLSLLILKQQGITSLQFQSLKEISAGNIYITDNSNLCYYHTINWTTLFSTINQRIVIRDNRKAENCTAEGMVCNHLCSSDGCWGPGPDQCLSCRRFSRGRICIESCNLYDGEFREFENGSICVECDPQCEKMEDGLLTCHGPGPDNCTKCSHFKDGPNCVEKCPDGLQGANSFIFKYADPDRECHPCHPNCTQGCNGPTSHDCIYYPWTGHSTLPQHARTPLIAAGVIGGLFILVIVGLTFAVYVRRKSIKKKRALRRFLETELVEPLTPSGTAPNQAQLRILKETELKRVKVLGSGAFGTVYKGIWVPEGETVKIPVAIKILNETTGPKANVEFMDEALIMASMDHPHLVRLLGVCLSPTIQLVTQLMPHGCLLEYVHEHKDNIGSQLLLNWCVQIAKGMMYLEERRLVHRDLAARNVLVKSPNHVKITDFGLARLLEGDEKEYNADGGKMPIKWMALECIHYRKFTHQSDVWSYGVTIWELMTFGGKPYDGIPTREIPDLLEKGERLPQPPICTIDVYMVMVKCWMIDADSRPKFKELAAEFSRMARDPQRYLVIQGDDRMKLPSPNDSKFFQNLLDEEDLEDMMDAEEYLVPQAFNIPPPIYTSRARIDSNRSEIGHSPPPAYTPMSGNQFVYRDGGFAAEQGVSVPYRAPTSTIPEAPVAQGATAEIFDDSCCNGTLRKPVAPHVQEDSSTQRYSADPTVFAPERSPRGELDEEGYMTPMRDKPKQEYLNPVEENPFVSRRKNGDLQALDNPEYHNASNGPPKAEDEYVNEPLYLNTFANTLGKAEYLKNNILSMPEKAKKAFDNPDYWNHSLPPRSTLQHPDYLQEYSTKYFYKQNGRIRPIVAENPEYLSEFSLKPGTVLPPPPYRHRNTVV

GRK6(h) = GRK6(h) (Homo sapiens, UniProt P43250)
GRK6(h), sequence (P43250 whole entry): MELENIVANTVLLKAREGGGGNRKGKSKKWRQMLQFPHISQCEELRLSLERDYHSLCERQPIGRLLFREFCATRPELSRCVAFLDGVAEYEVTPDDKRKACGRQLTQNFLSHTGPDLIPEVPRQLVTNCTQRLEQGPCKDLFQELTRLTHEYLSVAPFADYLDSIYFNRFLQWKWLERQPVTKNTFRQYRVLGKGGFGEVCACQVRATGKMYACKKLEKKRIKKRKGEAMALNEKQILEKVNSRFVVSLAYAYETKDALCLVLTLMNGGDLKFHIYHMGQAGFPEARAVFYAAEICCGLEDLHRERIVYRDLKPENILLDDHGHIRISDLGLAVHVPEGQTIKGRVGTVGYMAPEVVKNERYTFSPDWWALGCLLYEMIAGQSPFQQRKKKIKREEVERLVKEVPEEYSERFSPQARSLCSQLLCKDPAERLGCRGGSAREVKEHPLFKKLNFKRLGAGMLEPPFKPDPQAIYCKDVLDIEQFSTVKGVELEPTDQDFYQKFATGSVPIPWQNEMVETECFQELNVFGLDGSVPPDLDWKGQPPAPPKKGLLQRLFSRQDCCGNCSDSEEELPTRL

HIPK1(h) = HIPK1(h) (Homo sapiens, UniProt Q86Z02)
HIPK1(h), sequence (Q86Z02 whole entry): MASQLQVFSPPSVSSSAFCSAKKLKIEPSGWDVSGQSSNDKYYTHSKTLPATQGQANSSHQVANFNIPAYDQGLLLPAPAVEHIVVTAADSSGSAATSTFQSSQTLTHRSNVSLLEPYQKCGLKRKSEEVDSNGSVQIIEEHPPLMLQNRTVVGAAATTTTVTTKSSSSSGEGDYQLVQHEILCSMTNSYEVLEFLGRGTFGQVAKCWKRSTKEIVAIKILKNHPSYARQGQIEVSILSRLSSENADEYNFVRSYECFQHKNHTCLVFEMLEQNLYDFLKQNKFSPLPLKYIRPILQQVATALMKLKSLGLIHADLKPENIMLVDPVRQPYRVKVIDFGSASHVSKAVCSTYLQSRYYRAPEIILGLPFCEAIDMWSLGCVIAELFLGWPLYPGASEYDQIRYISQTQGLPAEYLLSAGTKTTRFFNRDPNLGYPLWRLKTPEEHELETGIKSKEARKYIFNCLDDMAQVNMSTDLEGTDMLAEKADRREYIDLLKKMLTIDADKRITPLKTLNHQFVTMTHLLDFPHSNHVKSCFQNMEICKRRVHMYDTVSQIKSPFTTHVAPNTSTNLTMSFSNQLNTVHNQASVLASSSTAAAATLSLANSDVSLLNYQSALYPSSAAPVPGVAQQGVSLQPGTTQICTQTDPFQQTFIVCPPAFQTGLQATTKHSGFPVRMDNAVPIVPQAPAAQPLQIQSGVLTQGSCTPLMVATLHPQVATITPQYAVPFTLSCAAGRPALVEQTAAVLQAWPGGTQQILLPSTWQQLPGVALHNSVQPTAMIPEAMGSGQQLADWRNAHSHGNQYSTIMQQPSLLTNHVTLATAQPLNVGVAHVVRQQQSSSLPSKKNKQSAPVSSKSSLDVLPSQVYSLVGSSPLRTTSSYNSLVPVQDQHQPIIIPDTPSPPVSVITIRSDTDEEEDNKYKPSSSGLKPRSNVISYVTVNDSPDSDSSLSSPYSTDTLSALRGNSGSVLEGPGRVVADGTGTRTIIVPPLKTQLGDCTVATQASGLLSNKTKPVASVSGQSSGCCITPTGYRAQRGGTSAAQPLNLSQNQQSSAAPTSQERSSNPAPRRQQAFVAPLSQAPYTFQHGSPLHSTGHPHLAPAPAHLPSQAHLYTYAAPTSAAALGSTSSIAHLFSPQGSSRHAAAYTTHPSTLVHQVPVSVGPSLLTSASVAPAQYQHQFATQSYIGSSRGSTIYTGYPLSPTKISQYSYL

IRAK4(h) = target: T2, IRAK4(h) (Homo sapiens, UniProt Q9NWZ3)
T2 sequence (Q9NWZ3 1-460): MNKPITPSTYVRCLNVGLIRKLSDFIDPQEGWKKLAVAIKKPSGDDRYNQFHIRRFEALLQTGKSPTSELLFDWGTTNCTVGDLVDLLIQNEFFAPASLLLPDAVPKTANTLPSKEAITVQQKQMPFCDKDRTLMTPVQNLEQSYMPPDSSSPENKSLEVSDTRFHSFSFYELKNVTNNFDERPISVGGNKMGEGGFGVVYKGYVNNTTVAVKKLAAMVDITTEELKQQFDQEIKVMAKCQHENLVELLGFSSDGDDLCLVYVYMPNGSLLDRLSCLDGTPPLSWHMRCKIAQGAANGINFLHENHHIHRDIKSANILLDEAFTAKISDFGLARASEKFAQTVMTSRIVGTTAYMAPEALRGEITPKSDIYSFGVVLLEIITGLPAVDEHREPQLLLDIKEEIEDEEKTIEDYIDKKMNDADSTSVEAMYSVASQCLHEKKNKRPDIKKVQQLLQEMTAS

MSSK1(h) = MSSK1(h) (Homo sapiens, UniProt Q9UPE1)
MSSK1(h), sequence (Q9UPE1 whole entry): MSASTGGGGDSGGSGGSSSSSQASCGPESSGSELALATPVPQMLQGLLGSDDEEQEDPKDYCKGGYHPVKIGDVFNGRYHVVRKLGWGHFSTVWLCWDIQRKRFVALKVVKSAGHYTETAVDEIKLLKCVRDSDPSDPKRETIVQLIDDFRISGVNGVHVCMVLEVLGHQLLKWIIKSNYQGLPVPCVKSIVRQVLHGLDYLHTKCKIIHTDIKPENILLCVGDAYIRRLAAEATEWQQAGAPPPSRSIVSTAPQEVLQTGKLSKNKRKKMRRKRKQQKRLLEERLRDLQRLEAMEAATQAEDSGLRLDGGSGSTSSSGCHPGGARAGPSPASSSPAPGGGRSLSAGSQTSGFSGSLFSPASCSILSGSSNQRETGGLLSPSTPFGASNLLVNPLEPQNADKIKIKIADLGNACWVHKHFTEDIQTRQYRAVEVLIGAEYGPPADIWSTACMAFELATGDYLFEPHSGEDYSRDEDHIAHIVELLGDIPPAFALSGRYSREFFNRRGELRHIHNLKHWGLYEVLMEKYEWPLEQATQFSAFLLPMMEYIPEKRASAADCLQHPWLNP

mTOR(h) = mTOR(h) (Homo sapiens, UniProt P42345)
NEK3(h) = target: T3, NEK3(h) (Homo sapiens, UniProt P51956)
T3 sequence (P51956 1-506): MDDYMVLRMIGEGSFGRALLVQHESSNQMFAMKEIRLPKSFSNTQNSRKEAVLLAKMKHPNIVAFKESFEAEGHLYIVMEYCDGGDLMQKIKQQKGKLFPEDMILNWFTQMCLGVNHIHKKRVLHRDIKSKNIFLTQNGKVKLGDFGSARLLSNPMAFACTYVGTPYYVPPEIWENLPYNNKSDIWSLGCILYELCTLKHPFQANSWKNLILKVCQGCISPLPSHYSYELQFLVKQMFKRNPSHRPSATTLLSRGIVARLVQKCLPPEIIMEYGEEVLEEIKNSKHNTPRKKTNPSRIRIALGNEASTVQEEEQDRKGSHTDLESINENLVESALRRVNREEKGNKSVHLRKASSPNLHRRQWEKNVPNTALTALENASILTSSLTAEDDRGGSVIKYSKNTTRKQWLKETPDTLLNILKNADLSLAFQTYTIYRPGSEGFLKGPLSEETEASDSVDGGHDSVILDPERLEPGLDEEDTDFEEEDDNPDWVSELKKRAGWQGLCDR

PKG1α(h) = target: T4, PKG1α(h) (Homo sapiens, UniProt Q13976)
T4 sequence (Q13976 1-671): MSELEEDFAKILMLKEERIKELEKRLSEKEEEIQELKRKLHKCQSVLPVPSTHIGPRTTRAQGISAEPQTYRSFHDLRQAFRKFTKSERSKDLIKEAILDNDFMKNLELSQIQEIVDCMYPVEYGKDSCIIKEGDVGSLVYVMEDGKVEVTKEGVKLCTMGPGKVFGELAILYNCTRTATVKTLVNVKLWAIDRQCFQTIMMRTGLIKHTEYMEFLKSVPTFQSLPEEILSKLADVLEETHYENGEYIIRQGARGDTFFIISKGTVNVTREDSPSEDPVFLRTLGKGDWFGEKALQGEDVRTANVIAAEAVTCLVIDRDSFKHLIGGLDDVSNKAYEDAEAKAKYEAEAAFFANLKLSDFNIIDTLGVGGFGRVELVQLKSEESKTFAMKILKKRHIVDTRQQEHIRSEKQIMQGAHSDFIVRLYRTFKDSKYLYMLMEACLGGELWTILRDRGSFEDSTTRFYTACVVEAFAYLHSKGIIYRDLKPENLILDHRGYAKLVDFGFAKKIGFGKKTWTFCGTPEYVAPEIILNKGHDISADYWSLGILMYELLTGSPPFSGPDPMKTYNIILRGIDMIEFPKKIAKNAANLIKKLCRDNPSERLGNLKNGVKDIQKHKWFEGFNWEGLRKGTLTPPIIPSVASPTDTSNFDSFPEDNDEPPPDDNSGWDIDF

Rsk3(h) = Rsk3(h) (Homo sapiens, UniProt Q15349)
Rsk3(h), sequence (Q15349 whole entry): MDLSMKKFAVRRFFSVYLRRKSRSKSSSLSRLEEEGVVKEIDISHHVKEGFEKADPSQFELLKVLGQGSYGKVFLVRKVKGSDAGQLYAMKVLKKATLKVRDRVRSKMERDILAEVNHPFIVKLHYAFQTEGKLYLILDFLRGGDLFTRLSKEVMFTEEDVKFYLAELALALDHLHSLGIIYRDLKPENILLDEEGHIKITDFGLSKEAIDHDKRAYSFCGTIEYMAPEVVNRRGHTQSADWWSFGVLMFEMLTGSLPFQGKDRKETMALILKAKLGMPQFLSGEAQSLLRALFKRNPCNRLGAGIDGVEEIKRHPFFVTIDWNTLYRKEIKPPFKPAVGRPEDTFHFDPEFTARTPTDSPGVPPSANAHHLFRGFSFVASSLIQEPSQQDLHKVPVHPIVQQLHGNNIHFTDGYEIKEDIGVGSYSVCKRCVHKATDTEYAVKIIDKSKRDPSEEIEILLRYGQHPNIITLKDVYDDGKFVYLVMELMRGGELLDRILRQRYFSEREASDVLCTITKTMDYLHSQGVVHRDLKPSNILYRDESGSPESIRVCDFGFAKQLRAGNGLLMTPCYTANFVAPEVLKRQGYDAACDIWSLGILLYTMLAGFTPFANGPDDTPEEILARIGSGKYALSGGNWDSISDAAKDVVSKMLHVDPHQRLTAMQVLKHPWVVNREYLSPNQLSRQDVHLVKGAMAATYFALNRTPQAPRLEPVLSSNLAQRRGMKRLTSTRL

| Sequence | % activity (ARK5(h)) | % activity (DAPK2(h)) | % activity (ErbB4(h)) | % activity (GRK6(h)) | % activity (HIPK1(h)) | % activity (IRAK4(h)) | % activity (MSSK1(h)) | % activity (mTOR(h)) | % activity (NEK3(h)) | % activity (PKG1α(h)) | % activity (Rsk3(h)) |
| --- | --- | --- | --- | --- | --- | --- | --- | --- | --- | --- | --- |
| FAKLAARLYRKALARQLGVAA [MMI-0300] | 78% | 32% | 40% | 147% | 74% | 59% | 77% | 91% | 92% | 64% | 76% |
| HRRIKAWLKKIKALARQLGVAA [MMI-0500] | 20% | 3% | 2% | 174% | 47% | 3% | 22% | 135% | 20% | 25% | 23% |
| KAFAKLAARLYRKALARQLGVAA [MMI-0400] | 69% | 16% | 0% | 141% | 91% | 59% | 75% | 93% | 85% | 58% | 71% |
| YARAAARQARAKALNRQLGVA [MMI-0200] | 93% | 92% | 82% | 132% |  | 110% | 100% | 110% | 100% | 70% |  |
